Measurements from patent publication US20250333467A1 (TECTONIC OPERATING, published 2025).
Residue numbers refer to the chain shown, from its start.

T1: human RXFP1 (human, UniProt Q9HBX9 1-757)
T1 sequence (looked up): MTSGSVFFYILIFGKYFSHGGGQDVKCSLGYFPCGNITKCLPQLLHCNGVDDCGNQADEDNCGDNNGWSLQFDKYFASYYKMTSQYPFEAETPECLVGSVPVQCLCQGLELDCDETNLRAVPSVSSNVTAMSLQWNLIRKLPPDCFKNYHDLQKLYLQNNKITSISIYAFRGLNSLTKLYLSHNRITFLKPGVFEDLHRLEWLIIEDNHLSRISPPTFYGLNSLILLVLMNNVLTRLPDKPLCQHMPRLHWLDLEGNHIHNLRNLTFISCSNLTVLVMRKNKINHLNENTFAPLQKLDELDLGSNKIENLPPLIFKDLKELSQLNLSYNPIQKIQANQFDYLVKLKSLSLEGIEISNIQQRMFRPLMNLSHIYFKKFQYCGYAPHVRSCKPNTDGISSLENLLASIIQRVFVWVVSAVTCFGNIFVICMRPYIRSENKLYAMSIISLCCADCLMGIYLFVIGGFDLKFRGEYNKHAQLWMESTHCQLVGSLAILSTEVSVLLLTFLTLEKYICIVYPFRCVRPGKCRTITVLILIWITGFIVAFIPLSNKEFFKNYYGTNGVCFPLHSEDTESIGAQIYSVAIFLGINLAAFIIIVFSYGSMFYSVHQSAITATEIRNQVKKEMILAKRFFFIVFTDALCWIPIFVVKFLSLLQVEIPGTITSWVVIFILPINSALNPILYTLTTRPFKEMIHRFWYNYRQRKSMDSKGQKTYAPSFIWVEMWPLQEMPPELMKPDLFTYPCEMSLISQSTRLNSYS

B1: SEQ ID NO: 367 (Fc fusion)
chain: DKTHTCPPCPAPEAAGGPSVFLFPPKPKDTLMISRTPEVTCVVVDVSHEDPEVKFNWYVDGVEVHNAKTKPREEQYNSTYRVVSVLTVLHQDWLNGKEYKCKVSNKALAAPIEKTISKAKGQPREPQVYTLPPSRDELTKNQVSLTCLVKGFYPSDIAVEWESNGQPENNYKTTPPVLDSDGSFFLYSKLTVDKSRWQQGNVFSCSVLHEALHSHYTQKSLSLSPGGGSDSWMEEVIKLCGRELVRAQIAICGKSTGGEGGGEEGGGEGGQLYSALANKCCHVGCTKRSLARFC
B2: SEQ ID NO: 328 (Fc fusion)
chain: B1 chain with M233Q, G261E, E263G, G266E, E268G, G269S, G270R, R292Q
B3: SEQ ID NO: 327 (Fc fusion)
chain: B1 chain with M233Q, G261E, E263G, G266E, E268G, G269S, G270R
B4: SEQ ID NO: 113 (Fc fusion)
chain: DKTHTCPPCPAPEAAGGPSVFLFPPKPKDTLMISRTPEVTCVVVDVSHEDPEVKFNWYVDGVEVHNAKTKPREEQYNSTYRVVSVLTVLHQDWLNGKEYKCKVSNKALAAPIEKTISKAKGQPREPQVYTLPPSRDELTKNQVSLTCLVKGFYPSDIAVEWESNGQPENNYKTTPPVLDSDGSFFLYSKLTVDKSRWQQGNVFSCSVLHEALHSHYTQKSLSLSPGEGGSDSWQEEVIKLCGRELVRAQIAICGQSTASDAAGANADAGARQLYSALANKCCHVGCTKQSLAQFC
B5: SEQ ID NO: 89 (Fc fusion)
chain: B4 chain with E227K, Q255K, N265D, D267Q, Q289R
B6: SEQ ID NO: 108 (Fc fusion)
chain: B4 chain with Q255K, N265E, D267E
B7: SEQ ID NO: 112 (Fc fusion)
chain: B4 chain with N265D, D267N
B8: SEQ ID NO: 92 (Fc fusion)
chain: B4 chain with Q255K, Q289R
B9: SEQ ID NO: 88 (Fc fusion)
chain: B4 chain with E227K, Q255K, N265Q, Q289R
B10: SEQ ID NO: 116 (Fc fusion)
chain: B4 chain with N265Q
B11: SEQ ID NO: 84 (Fc fusion)
chain: B4 chain with E227K, Q255K, N265D, D267N, Q289R
B12: SEQ ID NO: 96 (Fc fusion)
chain: B4 chain with Q255K, N265D, D267Q, Q289R
B13: SEQ ID NO: 99 (Fc fusion)
chain: B4 chain with Q289R
B14: SEQ ID NO: 100 (Fc fusion)
chain: B4 chain with N265D, Q289R
B15: SEQ ID NO: 102 (Fc fusion)
chain: B4 chain with N265Q, Q289R
B16: SEQ ID NO: 94 (Fc fusion)
chain: B4 chain with Q255K, N265E, D267E, Q289R
B17: SEQ ID NO: 110 (Fc fusion)
chain: B4 chain with Q255K, N265D, D267Q
B18: SEQ ID NO: 90 (Fc fusion)
chain: B4 chain with E227K, Q255K, N265Q, D267Q, Q289R
B19: SEQ ID NO: 97 (Fc fusion)
chain: B4 chain with Q255K, N265Q, D267Q, Q289R
B20: SEQ ID NO: 117 (Fc fusion)
chain: B4 chain with N265D, D267Q
B21: SEQ ID NO: 85 (Fc fusion)
chain: B4 chain with E227K, Q255K, Q289R
B22: SEQ ID NO: 101 (Fc fusion)
chain: B4 chain with N265E, D267E, Q289R
B23: SEQ ID NO: 103 (Fc fusion)
chain: B4 chain with N265D, D267Q, Q289R
B24: SEQ ID NO: 106 (Fc fusion)
chain: B4 chain with Q255K
B25: SEQ ID NO: 138 (Fc fusion)
chain: DKTHTCPPCPAPEAAGGPSVFLFPPKPKDTLMISRTPEVTCVVVDVSHEDPEVKFNWYVDGVEVHNAKTKPREEQYNSTYRVVSVLTVLHQDWLNGKEYKCKVSNKALAAPIEKTISKAKGQPREPQVYTLPPSRDELTKNQVSLTCLVKGFYPSDIAVEWESNGQPENNYKTTPPVLDSDGSFFLYSKLTVDKSRWQQGNVFSCSVLHEALHSHYTQKSLSLSPGKGGSDSYQEEVIKLCGRELVRAQIAICGKSTGGEGSGGEGSGGGRQLYSALANKCCKVGCTKQSLAQFC
B26: SEQ ID NO: 133 (Fc fusion)
chain: B4 chain with E227K, W233Y, Q255K, N265E, D267E, H283Y
B27: SEQ ID NO: 136 (Fc fusion)
chain: B25 chain with S267E
B28: SEQ ID NO: 135 (Fc fusion)
chain: B25 chain with S267E, K283Y
B29: SEQ ID NO: 134 (Fc fusion)
chain: B4 chain with E227K, W233Y, Q255K, N265E, D267E, H283K
B30: SEQ ID NO: 137 (Fc fusion)
chain: B25 chain with K283Y

The binders below were run against T1, human RXFP1 (assay: cell-based or functional assay).

| Potency (cAMP, transient hRXFP1 in HEK293) [nM] | Binder |
| --- | --- |
| 140 | B1 |
| 41.9 | B2 |
| 9.3 | B3 |
| 26 | B4 |
| 2.5 | B5 |
| 35.2 | B6 |
| 24.8 | B7 |
| 4.3 | B8 |
| 1.4 | B9 |
| 25.9 | B10 |
| 1.9 | B11 |
| 9.9 | B12 |
| 9.4 | B13 |
| 28.7 | B14 |
| 7.5 | B15 |
| 12.2 | B16 |
| 17.2 | B17 |
| 0.6 | B18 |
| 1.3 | B19 |
| 31.2 | B20 |
| 2 | B21 |
| 29.4 | B22 |
| 12.2 | B23 |
| 14 | B24 |

Target: T1, human RXFP1
Test: cell-based or functional assay
Remark: another data set of the same source

| Potency (cAMP, transient hRXFP1 in HEK293) [nM] | Binder |
| --- | --- |
| 7.5 | B25 |
| 30.6 | B26 |
| 17.6 | B27 |
| 29.5 | B28 |
| 21.6 | B29 |
| 11.4 | B30 |

Target: T1, human RXFP1
Test: cell-based or functional assay
Remark: another data set of the same source

| Transient HEK293 hRXFP1 cAMP EC50 [nM] | THP1 (endogenous RXFP1) cAMP EC50 [nM] | Binder |
| --- | --- | --- |
| ~150 |  | B1 |
| 0.6 | 4.4 | B18 |
